{
  "source": "paper PMC5122770",
  "about": "“Homodimerization of the Lymph Vessel Endothelial Receptor LYVE-1 through a Redox-labile Disulfide Is Critical for Hyaluronan Binding in Lymphatic Endothelium*^([image sbox.jpg])” (The Journal of Biological Chemistry, 2016)",
  "proteins": {"B1": {"name": "LYVE-1 (native receptor in primary human dermal lymphatic endothelial cells) (receptor, human (endogenous in HDLEC), UniProt Q9Y5Y7 20-322, looked up)", "chain": "LVQGSLRAEELSIQVSCRIMGITLVSKKANQQLNFTEAKEACRLLGLSLAGKDQVETALKASFETCSYGWVGDGFVVISRISPNPKCGKNGVGVLIWKVPVSRQFAAYCYNSSDTWTNSCIPEIITTKDPIFNTQTATQTTEFIVSDSTYSVASPYSTIPAPTTTPPAPASTSIPRRKKLICVTEVFMETSTMSTETEPFVENKAAFKNEAAGFGGVPTALLVLALLFFGAAAGLGFCYVKRYVKAFPFTNKNQQKEMIETKVVKEEKANDSNPNEESKKTDKNPEESKSPSKTTVRCLEAEV", "notes": "LYVE-1, human, endogenous receptor of primary human dermal lymphatic endothelial cells; glycosylated; also called lymphatic vessel endothelial receptor LYVE-1; hLYVE-1; source: endogenous, primary HDLEC whole cell lysate"}, "B2": {"name": "full-length wild-type hLYVE-1 (in HEK 293T cells) (receptor, human, UniProt Q9Y5Y7 20-322, looked up)", "chain": "B1 chain", "notes": "also called wild-type receptor; source: HEK 293T, transfected, in lysate"}, "B3": {"name": "mouse LYVE-1 (native receptor in mouse tissues) (receptor, mouse (endogenous in mouse tissues), UniProt Q8BHC0 24-318, looked up)", "chain": "ADLVQDLSISTCRIMGVALVGRNKNPQMNFTEANEACKMLGLTLASRDQVESAQKSGFETCSYGWVGEQFSVIPRIFSNPRCGKNGKGVLIWNAPSSQKFKAYCHNSSDTWVNSCIPEIVTTFYPVLDTQTPATEFSVSSSAYLASSPDSTTPVSATTRAPPLTSMARKTKKICITEVYTEPITMATETEAFVASGAAFKNEAAGFGGVPTALLVLALLFFGAAAVLAVCYVKRYVKAFPFTTKNQQKEMIETKVVKEEKADDVNANEESKKTIKNPEEAKSPPKTTVRCLEAEV", "notes": "LYVE-1, mouse, endogenous in tissue lysates; source: endogenous, lysates of freshly resected mouse ear skin, lymph node, liver and lung"}, "B4": {"name": "hLYVE-1 Δ238 His10 (soluble full ectodomain, wild type) (domain or fragment, human, UniProt Q9Y5Y7 20-238, looked up)", "chain": "LVQGSLRAEELSIQVSCRIMGITLVSKKANQQLNFTEAKEACRLLGLSLAGKDQVETALKASFETCSYGWVGDGFVVISRISPNPKCGKNGVGVLIWKVPVSRQFAAYCYNSSDTWTNSCIPEIITTKDPIFNTQTATQTTEFIVSDSTYSVASPYSTIPAPTTTPPAPASTSIPRRKKLICVTEVFMETSTMSTETEPFVENKAAFKNEAAGFGGVPT", "notes": "signal peptide in the construct (forward primer begins 14 nt before the start ATG); LYVE-1, human, full-length extracellular domain terminating after residue number 238; secreted from CHO cells; Recovered as a mixture of monomers and disulfide-linked dimers; the homodimer was separated by multiple rounds of size exclusion chromatography; also called soluble hLYVE-1 ectodomain; WT LYVE-1 His10; …"}},
  "key": {"[1]": {"biological_target": "the molecule itself", "assay": "non-reducing SDS-PAGE with Western blot; whole cell lysate of primary HDLEC lysed without NEM; non-reducing; polyclonal LYVE-1 antibody"}, "[2]": {"biological_target": "the molecule itself", "assay": "non-reducing SDS-PAGE with Western blot; cells lysed in LDS sample buffer with 5 mM NEM; non-reducing; polyclonal LYVE-1 antibody, densitometry (Licor Odyssey)"}, "[3]": {"biological_target": "the molecule itself", "assay": "non-reducing SDS-PAGE with Western blot; mouse liver and lung tissue, minced and lysed with 5 mM NEM; non-reducing"}, "[4]": {"biological_target": "the molecule itself", "assay": "non-reducing SDS-PAGE with Western blot; freshly resected mouse ear skin and lymph node, minced and lysed with 5 mM NEM; non-reducing"}, "[5]": {"biological_target": "the molecule itself", "assay": "non-reducing SDS-PAGE with Western blot; CHO cell-derived soluble protein dissolved in LDS sample buffer with NEM; non-reducing"}},
  "data": [
    {"protein": "B1", "values": [
      {"measurement": "stoichiometry N", "setting": "[1]", "value": 2}
    ]},
    {"protein": "B2", "values": [
      {"measurement": "dimer:monomer ratio", "setting": "[2]", "value": "2 dimer:monomer"}
    ]},
    {"protein": "B3", "values": [
      {"measurement": "homodimer:monomer ratio", "setting": "[3]", "value": "~2 homodimer:monomer"},
      {"measurement": "stoichiometry N", "setting": "[4]", "value": 2}
    ]},
    {"protein": "B4", "values": [
      {"measurement": "binding result", "setting": "[5]", "value": "binds"}
    ]}
  ]
}
